Measured values from IntAct's records for PubMed 29039417.

B1: BBSome complex member BBS4 (Homo sapiens), Q96RK4 (parent)
chain: MAEERVATRTQFPVSTESQKPRQKKAPEFPILEKQNWLIHLHYIRKDYEACKAVIKEQLQETQGLCEYAIYVQALIFRLEGNIQESLELFQTCAVLSPQSADNLKQVARSLFLLGKHKAAIEVYNEAAKLNQKDWEISHNLGVCYIYLKQFNKAQDQLHNALNLNRHDLTYIMLGKIHLLEGDLDKAIEVYKKAVEFSPENTELLTTLGLLYLQLGIYQKAFEHLGNALTYDPTNYKAILAAGSMMQTHGDFDVALTKYRVVACAVPESPPLWNNIGMCFFGKKKYVAAISCLKRANYLAPFDWKILYNLGLVHLTMQQYASAFHFLSAAINFQPKMGELYMLLAVALTNLEDIENAKRAYAEAVHLDKCNPLVNLNYAVLLYNQGEKKNALAQYQEMEKKVSLLKDNSSLEFDSEMVEMAQKLGAALQVGEALVWTKPVKDPKSKHQTTSTSKPASFQQPLGSNQALGQAMSSAAAYRTLPSGAGGTSQFTKPPSLPLEPEPAVESSPTETSEQIREK
partner: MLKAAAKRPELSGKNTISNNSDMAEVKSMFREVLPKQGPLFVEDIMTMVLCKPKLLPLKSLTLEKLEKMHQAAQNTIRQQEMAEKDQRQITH

Variants of: B1
Conditions: with bbip1_human BBIP1, A8MTZ0

Row | effect of a mutation on the interaction | Variant
1 | disrupting interaction strength | MAEERVATRTQFPVSTESQKPRQKKAPEFPILEKQNWLIHLHYIRKDYEACKAVIKEQLQETQGLCEYAIYVQALIFRLEGNIQESLELFQTCAVLSPQSADNLKQVARSLFLLGKHKAAIEVYNEAAKLNQKDWEISHNLGVCYIYLKQFNKAQDQLHNALNLNRHDLTYIMLGKIHLLEGDLDKAIEVYKKAVEFSPENTELLTTLGLLYLQLGIYQKAFEHLGNALTYDPTNYKAILAAGSMMQTHGDFDVALTKYRVVACAVPESPPLWNNIGMCFFGKKKYVAAISCLKRANYLAPFDWKILYNLGLVHLTMQQYASAFHFLSAAINFQPKMGELYWLLAVALTNLEDIENAKRAYAEAVHLDKCNPLVNLNYAVLLYNQGEKKNALAQYQEMEKKVSLLKDNSSLEFDSEMVEMAQKLGAALQVGEALVWTKPVKDPKSKHQTTSTSKPASFQQPLGSNQALGQAMSSAAAYRTLPSGAGGTSQFTKPPSLPLEPEPAVESSPTETSEQIREK [M342W]
2 | with no effect | MAEERVATRTQFPVSTESQKPRQKKAPEFPILEKQNWLIHLHYIRKDYEACKAVIKEQLQETQGLCEYAIYVQALIFRLEGNIQESLELFQTCAVLSPQSADNLKQVARSLFLLGKHKAAIEVYNEAAKLNQKDWEISHNLGVCYIYLKQFNKAQDQLHNALNLNRHDLTYIMLGKIHLLEGDLDKAIEVYKKAVEFSPENTELLTTLGLLYLQLGIYQKAFEHLGNALTYDPTNYKAILAAGSMMQTHGDFDVALTKYRVVACAVPESPPLWNNIGMCFFGKKKYVAAISCLKRANYLAPFDWKILYNLGLVHLTMQQYASAFHFLSAAINFQPKMGELYMLLAVALTNLEDIENAKRAYAEAVHLDKCNPLVNLNYAVLLYNQGEKKNALAQYQEMEKKVSLKKDNSSLEFDSEMVEMAQKLGAALQVGEALVWTKPVKDPKSKHQTTSTSKPASFQQPLGSNQALGQAMSSAAAYRTLPSGAGGTSQFTKPPSLPLEPEPAVESSPTETSEQIREK [L405K]
3 | with no effect | MAEERVATRTQFPVSTESQKPRQKKAPEFPILEKQNWLIHLHYIRKDYEACKAVIKEQLQETQGLCEYAIYVQALIFRLEGNIQESLELFQTCAVLSPQSADNLKQVARSLFLLGKHKAAIEVYNEAAKLNQKDWEISHNLGVCYIYLKQFNKAQDQLHNALNLNRHDLTYIMLGKIHLLEGDLDKAIEVYKKAVEFSPENTELLTTLGLLYLQLGIYQKAFEHLGNALTYDPTNYKAILAAGSMMQTHGDFDVALTKYRVVACAVPESPPLWNNIGMCFFGKKKYVAAISCLKRANYLAPFDWKILYNLGLVHLTMQQYASAFHFLSAAINFQPKMGELYMLLAVALTNLEDIENAKRAEAEAVHLDKCNPLVNLNYAVLLYNQGEKKNALAQYQEMEKKVSLLKDNSSLEFDSEMVEMAQKLGAALQVGEALVWTKPVKDPKSKHQTTSTSKPASFQQPLGSNQALGQAMSSAAAYRTLPSGAGGTSQFTKPPSLPLEPEPAVESSPTETSEQIREK [Y361E]
4 | with no effect | MAEERVATRTQFPVSTESQKPRQKKAPEFPILEKQNWLIHLHYIRKDYEACKAVIKEQLQETQGLCEYAIYVQALIFRLEGNIQESLELFQTCAVLSPQSADNLKQVARSLFLLGKHKAAIEVYNEAAKLNQKDWEISHNLGVCYIYLKQFNKAQDQLHNALNLNRHDLTYIMLGKIHLLEGDLDKAIEVYKKAVEFSPENTELLTTLGLLYLQLGIYQKAFEHLGNALTYDPTNYKAILAAGSMMQTHGDFDVALTKYRVVACAVPESPPLWNNIGMCFFGKKKYVAAISCLKRANYLAPFDWKILYNLGLVHLTMQQYASAFHFLSAAINFQPKMGELYMELAVALTNLEDIENAKRAYAEAVHLDKCNPLVNLNYAVLLYNQGEKKNALAQYQEMEKKVSLLKDNSSLEFDSEMVEMAQKLGAALQVGEALVWTKPVKDPKSKHQTTSTSKPASFQQPLGSNQALGQAMSSAAAYRTLPSGAGGTSQFTKPPSLPLEPEPAVESSPTETSEQIREK [L343E]
5 | with no effect | MAEERVATRTQFPVSTESQKPRQKKAPEFPILEKQNWLIHLHYIRKDYEACKAVIKEQLQETQGLCEYAIYVQALIFRLEGNIQESLELFQTCAVLSPQSADNLKQVARSLFLLGKHKAAIEVYNEAAKLNQKDWEISHNLGVCYIYLKQFNKAQDQLHNALNLNRHDLTYIMLGKIHLLEGDLDKAIEVYKKAVEFSPENTELLTTLGLLYLQLGIYQKAFEHLGNALTYDPTNYKAILAAGSMMQTHGDFDVALTKYRVVACAVPESPPLWNNIGMCFFGKKKYVAAISCLKRANYLAPFDWKILYNLGLVHLTMQQYASAFHFLSAAINFQPKMGELYMLLAVALTNLEDIENAKRAYAEAVHLDKCNPLVNLNYAVLLYNQGEKKNALAQYQEMEKKVSLLKDNSSLEFDSEMVEMAQKLGAALQVGEALVWTKEVKDPKSKHQTTSTSKPASFQQPLGSNQALGQAMSSAAAYRTLPSGAGGTSQFTKPPSLPLEPEPAVESSPTETSEQIREK [P439E]
6 | with no effect | MAEERVATRTQFPVSTESQKPRQKKAPEFPILEKQNWLIHLHYIRKDYEACKAVIKEQLQETQGLCEYAIYVQALIFRLEGNIQESLELFQTCAVLSPQSADNLKQVARSLFLLGKHKAAIEVYNEAAKLNQKDWEISHNLGVCYIYLKQFNKAQDQLHNALNLNRHDLTYIMLGKIHLLEGDLDKAIEVYKKAVEFSPENTELLTTLGLLYLQLGIYQKAFEHLGNALTYDPTNYKAILAAGSMMQTHGDFDVALTKYRVVACAVPESPPLWNNIGMCFFGKKKYVAAISCLKRANYLAPFDWKILYNLGLVHLTMQQYASAFHFLSAAINFQPKMGELYMLLAVALTNLEDIENAKRAYAEAVHLDKCNPLVNLNYAVLLYNQGEKKNALAQYQEMEKKVSLLKDNSSLEFDSEMVEMAQKLGAALQVGEALVWTKPVKDPKSKHQTTSTSKPASFQQPLGSNQALGQAMSSAAAYRELPSGAGGTSQFTKPPSLPLEPEPAVESSPTETSEQIREK [T480E]
